According to US8574882B2, “Thermostable 1,5-anhydroglucitol dehydrogenase, and method for measurement of 1,5-anhydroglucitol by using the same” (Nippon Kayaku Kabushiki Kaisha, priority 2008, dated 2013):
Residue numbers refer to the chain shown, from its start. In names and notes the source's numbering stands. Blank lines part the entries; values can stand above or below the molecule they belong to.

What was measured:
[1] = system: 1,5-AG dehydrogenase (Ver. 0); assay: Substrate specificity of parent strain-derived 1,5-AG dehydrogenase; type: biochemical, Pseudomonas sp. NK-85001; settings: activity for 1,5-AG as 100%; Ver. 0, 40%-saturated ammonium sulfate precipitate fraction
Protocol: (§1) The components other than the crude enzyme solution are mixed and kept at 37° C. for 10 minutes. Then, the crude enzyme solution is added to the reaction solution to initiate reaction. Decrease in absorbance at 600 nm for 1 minute with the temperature kept at 37° C. is determined.
A precipitate fraction of 40%-saturated ammonium sulfate was collected by centrifugation and dissolved in a 50 mM sodium phosphate buffer, pH 7.5.

[2] = 1,5-AG dehydrogenase activity determination of crude enzyme solution (L-sorbose, DCIP, 1-m-PMS, decrease in absorbance at 600 nm); type: biochemical
Protocol: The E. coli JM109 strains transformed with the pTrc-PS15DH vectors confirmed in the paragraph (I) to have the insert fragment were inoculated to 3 mL of an LB medium containing 100 μg/mL ampicillin and cultured at 28° C. for 14 hours. Of this culture solution, a 0.2 mL aliquot was inoculated to 10 mL of an LB medium (containing 100 μg/mL ampicillin). Approximately 3 hours later, the rise of OD600 of the culture solution to 0.4 to 0.7 was confirmed, and 1,5-AG dehydrogenase expression in E. coli was then induced by the addition of 0.1 M IPTG (final concentration: 0.1 mM) to the medium. This culture solution was further cultured overnight at 28° C. and centrifuged at 10000×g for 5 minutes to precipitate cells. The supernatant was removed, and the pellet was then washed twice with a 0.85% aqueous NaCl solution. Cells were precipitated by centrifugation. Then, the microbial cells were suspended in 1 mL of a 50 mM sodium phosphate buffer, pH 7.5. Triton X-100 was added thereto at a concentration of 0.25%, and the microbial cells were disrupted using a bead impact-type cell disrupter MINI-BEAD BEATER (30 seconds×4, manufactured by Central Scientific Commerce, Inc.) while cooled in ice. After centrifugation at 20000×g for 10 minutes, the supernatant was examined as a crude enzyme solution for its 1,5-AG dehydrogenase activity. The composition of the reaction solution is as described below. Since the 1,5-AG dehydrogenase also reacts with L-sorbose as its substrate, L-sorbose was used for convenience instead of 1,5-AG in the enzymatic activity determination.
Composition of Reaction Solution:
as §1
The enzymatic activity can be determined according to the following equation: Enzymatic activity (U/mL)=(Δ600/min×0.6 (mL)×dilution ratio of crude enzyme solution)/(16.3×0.01 (mL)).
(§2) The E. coli JM109 containing the gene encoding each thermostable 1,5-AG dehydrogenase obtained in the paragraphs to [4] of EXAMPLE 2 was transplanted to 10 mL of an LB liquid medium containing 50 μg/mL ampicillin and 0.1 mM IPTG and shake-cultured at 30° C. for 16 hours. 10 mL of the shake-culture solution was centrifuged at 10000 rpm for 5 minutes. The culture supernatant was removed, and the pellet was then washed twice with a 0.85% aqueous NaCl solution. These microbial cells were suspended in 1 mL of a 50 mM sodium phosphate buffer (pH 7.5) containing 0.25% Triton X-100. The microbial cells were disrupted using a bead impact-type cell disrupter MINI-BEAD BEATER (30 seconds×4, manufactured by Central Scientific Commerce, Inc.) while cooled in ice. After centrifugation at 15000 rpm for 10 minutes, the supernatant was used as a crude enzyme solution. When the crude enzyme solution was heat-treated, the treatment was performed for 10 minutes in a water bath of 45° C., 50° C., 55° C. or 60° C.
(§3) The enzymatic activity of the 1,5-AG dehydrogenase was calculated by measurement by the same approach as that described in the paragraph (J) of EXAMPLE 1.
(§4) A specific activity that represents the enzymatic activity of the 1,5-AG dehydrogenase per mg of the crude enzyme solution was calculated according to the following equation: Specific activity (U/mg)=enzymatic activity (U/mL)/protein concentration of crude enzyme solution (mg/mL). Moreover, the rate of residual activity was calculated according to the following equation: Rate of residual activity (%)=(specific activity of crude enzyme solution after heat treatment/specific activity of crude enzyme solution before heat treatment)×100.
The 1,5-AG dehydrogenase activity was determined based on the method described in EXAMPLE 1, and its specific activity was determined according to the equation described in EXAMPLE 3.

[3] = Primary screening of variant gene library after heat treatment of microbial cells (DCIP decolorization with 1,5-AG); type: biochemical; settings: microbial cells treated at 60° C. for 20 minutes; blue color of DCIP decolorized
Protocol: Approximately 10100 colonies of the variant gene library were randomly picked up using a colony picker (PM-2s, manufactured by Microtec Co., Ltd.) and subjected to primary screening In the primary screening, a 1.2-mL 96-well square deep well plate (manufactured by NALGE NUNC INTERNATIONAL MK.) was used. The colonies were transplanted to 500 μL of an LB liquid medium containing 50 μg/mL ampicillin and cultured (28° C., 900 rpm) overnight in a 96-well square plate shaker (TITRAMAX 100, manufactured by HEIDOLPH). The 96-well square deep well plate was centrifuged at 2000 rpm for 10 minutes to separate microbial cells, which were then treated at −80° C. for 1 hour. The microbial cells were thawed and then treated at 60° C. for 20 minutes. Active variant enzymes were picked up by suspending the microbial cells thus treated at 60° C. by the addition of 200 μL of a 0.1 M potassium phosphate buffer (pH 7.0) containing 0.5% Triton X-100, 30 μL of 6 mM 2,6-dichlorophenolindophenol (DCIP) and 5 μL of 50 mg/mL 1,5-AG. The blue color of DCIP is decolorized for colonies having the enzymatic activity. As a result, it was observed that the blue color of DCIP was decolorized for colonies carrying a 1,5-AG dehydrogenase Ver. […] 0.

[4] = Stability of thermostable 1,5-AG dehydrogenase at heat treatment temperature (rate of residual activity); type: physicochemical; settings: crude enzyme solution, water bath 45° C., 10 minutes
Protocol: as §2, §3, §4

[5] = crude enzyme solution, L-sorbose as substrate, 37° C.

Molecule: O=C(CO)[C@@H](O)[C@H](O)[C@@H](O)CO [L-sorbose]
Relative activity [1]: 54%

B1: Ver. 1.0: thermostable 1,5-AG dehydrogenase, protein 21) of b101; net vs SEQ ID NO: 4: P50Q (protein)
chain: MEFGGQPDIVIIGSGIGGASIAAGLSASGADILILEAGESLPDRPENRDQHAIFQRGFFRPKEFWYETDGTPFNPGNYYNVGGNSKFYGAVLVRYRREDFEELAHLEGVSPAWPFAYDELEPWYCKAEELFQVRGELGDDPTEPYHSKPYSYPAIRDESPIADLRARLKKAGLHPASLPLGVDIERWLAKAKTPWDAHPNSNDGKMDAETCPLALALKHPNVGLETSARVTKLETGPDGKTIVAVHYVKNGEALVLRPKLVILSAGAVQSAALLLRSGLANRSDQVGRNFMNHNASAVIGFDPRYRNDSVYQKTFGFNDYYLSDGAGGPPLGNVQLLGRVSGAILKSNMRQVPEWFLNRIAGHTIDFYAMSEDLPSPESRVSVDGDRIILHWVRSNWKAHLMLVDKLKSALRAAGFPVVLSRAFDRRTPSHQCGTVRIGDNPATAPLDPYCRAYDHPNLYVVDASFLPTSAAVNPALTIAAQALRVADHLNREVLA
modifications: Pseudomonas sp. NK-85001
Specific activity [2, 5]: 1.7 U/mg
Thermostability compared with 1,5-AG dehydrogenase Ver. 0 [3]: improved thermostability
Rate of residual activity after 10-minute treatment at 45° C. [4]: 8.3%

B2: Ver. 2.0: thermostable 1,5-AG dehydrogenase, SEQ ID NO: 22; net vs SEQ ID NO: 4: Q6H, A37T, P50Q (protein)
chain: B1 chain with Q6H, A37T
modifications: Mutated 1,5-anhydroglucitol dehydrogenase gene
Specific activity [2, 5]: 1.4 U/mg
Specific activity ([2]; purification step: CFE (cell-free extracts)): 4.39 U/mg
Specific activity ([2]; purification step: ammonium sulfate precipitation): 13.8 U/mg
Specific activity ([2]; purification step: desalting and concentration): 13.5 U/mg
Specific activity ([2]; purification step: weak anion-exchange chromatography (DEAE FF)): 13.5 U/mg
Rate of residual activity after 10-minute treatment at 45° C. [4]: 31.0%

B3: Ver. 3.0: thermostable 1,5-AG dehydrogenase, protein 19); net vs SEQ ID NO: 4: A37T, P50Q, G362R (protein)
chain: B1 chain with A37T, G362R
modifications: Pseudomonas sp. NK-85001
Specific activity [2, 5]: 2.8 U/mg
Rate of residual activity after 10-minute treatment at 45° C. [4]: 40.0%

B4: Ver. 3.1: thermostable 1,5-AG dehydrogenase, protein 18); net vs SEQ ID NO: 4: A37T, P50Q, L164M (protein)
chain: B1 chain with A37T, L164M
modifications: Pseudomonas sp. NK-85001
Specific activity [2, 5]: 1.2 U/mg
Rate of residual activity after 10-minute treatment at 45° C. [4]: 54.0%

The next lines start with the values.

Relative activity [1]: 0.2%
Molecule: OC[C@H]1O[C@H](O[C@H]2[C@H](O)[C@@H](O)C(O)O[C@@H]2CO)[C@H](O)[C@@H](O)[C@@H]1O (mixture of isomers) [Maltose]

Relative activity [1]: 100%
Molecule: OC[C@H]1OC[C@H](O)[C@@H](O)[C@@H]1O [1,5-AG, 1,5-anhydroglucitol]

Relative activity [1]: 0%
Molecule: O=C[C@H](O)[C@@H](O)[C@@H](O)[C@H](O)CO [Galactose]

Relative activity [1]: 0%
Molecule: OC[C@@H](O)[C@H](O)[C@@H](O)CO [Xylitol]

Relative activity [1]: 0%
Molecule: O=C[C@H](O)[C@@H](O)[C@H](O)CO [Xylose]
